Reference: patent US20030206925A1 (Pfizer, published 2003)

Target: T1, measles virus nucleocapsid (N) protein, Edmonston wild-type (measles virus (Edmonston wild-type), UniProt P04851 1-525)
T1 sequence (looked up): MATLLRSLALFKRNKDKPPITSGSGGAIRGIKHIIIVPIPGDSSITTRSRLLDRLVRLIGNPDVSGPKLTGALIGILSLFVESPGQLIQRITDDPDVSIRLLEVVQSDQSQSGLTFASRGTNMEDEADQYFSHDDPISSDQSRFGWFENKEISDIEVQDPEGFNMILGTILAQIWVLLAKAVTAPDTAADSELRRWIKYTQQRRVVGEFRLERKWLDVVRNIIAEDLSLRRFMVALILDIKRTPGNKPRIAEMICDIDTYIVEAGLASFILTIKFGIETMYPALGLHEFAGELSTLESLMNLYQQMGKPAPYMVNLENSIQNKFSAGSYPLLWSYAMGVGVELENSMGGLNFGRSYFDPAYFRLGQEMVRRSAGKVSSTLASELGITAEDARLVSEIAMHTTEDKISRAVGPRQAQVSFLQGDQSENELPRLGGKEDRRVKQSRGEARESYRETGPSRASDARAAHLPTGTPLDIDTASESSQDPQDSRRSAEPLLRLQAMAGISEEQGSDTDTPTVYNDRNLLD
Assay: separate experiment, method not described, data not shown

Binder | binding result
measles virus V protein mutant haV-9 (deletion of amino acids 1-20) (other, Made in the pMV-haV-wt backbone by deletion mutagenesis) MAYPYDVPDYAAEPIGSLAIEEAMAAWSEISDNPGQERATCREEKAGSSGLSKPCLSAIGSTEGGAPRIRGQGPGESDDDAETLGIPPRNLQASSTGLQCYYVYDHSGEAVKGIQDADSIMVQSGLDGDSTLSGGDNESENSDVDIGEPDTEGYAITDRGSAPISMGFRASDVETAEGGEIHELLRLQSRGNNFPKLEKTLNVPPPPDPGRASTSETPIKKGHRREISLIWNGDRVFIDRWCNPMCSKVTLGTIRARCTCGECPRVCEQCRTDTGVDTRIWYHNLPEIPE | no binding
measles virus V protein mutant haV-11 (deletion of amino acids 1-20 and 208-230) (other, Made in the pMV-haV-wt backbone by deletion mutagenesis) MAYPYDVPDYAAEPIGSLAIEEAMAAWSEISDNPGQERATCREEKAGSSGLSKPCLSAIGSTEGGAPRIRGQGPGESDDDAETLGIPPRNLQASSTGLQCYYVYDHSGEAVKGIQDADSIMVQSGLDGDSTLSGGDNESENSDVDIGEPDTEGYAITDRGSAPISMGFRASDVETAEGGEIHELLRLQSRGNNFPKLEGHRREISLIWNGDRVFIDRWCNPMCSKVTLGTIRARCTCGECPRVCEQCRTDTGVDTRIWYHNLPEIPE | no binding
